The record followed here is article PMC5575937.

A word on the Kd: it is the concentration at which binding is half-saturated. High values mean a looser complex, low ones a tighter complex.

One data set concerns the target T1, ETV62C-red (Mus musculus (murine), UniProt P97360 329-446, C334S;A393C;V437C).
T1 sequence: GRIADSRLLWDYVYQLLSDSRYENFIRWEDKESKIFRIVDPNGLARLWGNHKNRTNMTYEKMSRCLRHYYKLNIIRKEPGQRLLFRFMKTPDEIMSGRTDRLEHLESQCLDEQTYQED
In words: NMR.

A further data set concerns the target T2, ETV6RAE (Mus musculus (murine), UniProt P97360 329-446, C334S;H432R;S435A;Q436E).
T2 sequence: T1 sequence with C65A, H104R, S107A, Q108E, C109V
In words: EMSA. In general terms: Mobility shift assays separate free from complexed probe on a gel.

Another data set has as its target T3, ETV6H432R (Mus musculus (murine), UniProt P97360 329-446, C334S;H432R).
T3 sequence: T1 sequence with C65A, H104R, C109V
In words: EMSA.

Positions count from the first letter of the chain named.

B1: 15-bp ETS consensus duplex (dsDNA)
DNA 1: CAAGCCGGAAGTGAG
DNA 2: CTCACTTCCGGCTTG
Regarding B1, the binding result with ETV62C-red was “binds”.

B2: 23-bp ETS consensus duplex (dsDNA)
DNA 1: CGGCCAAGCCGGAAGTGAGTGCC
DNA 2: GGCACTCACTTCCGGCTTGGCCG
As for B2, the results for the dissociation constant Kd with ETV6RAE and with ETV6H432R were 90 ± 10 nM and 30 ± 10 nM, respectively.
